Data reported in patent US20240034813A1 (Janssen / Centocor, published 2024).

Key:
[1] = biological target: T1, recombinant human EGFR/ErbB1/HER1 with C-terminal His tag, Cy5-labeled (human, UniProt P00533 25-645, Cy5 label (reacted with Cy5 Mono NHS Ester; sites not stated)); test: competitive TR-FRET (Eu-amivantamab/Cy5-EGFR), EC50 ratio vs Reference Material; Ex. 11 drug product, 6 months at 5 C
T1 construct: Commercial protein; also called Cy5-EGFR; Cy5-labeled EGFR antigen; not shown: C-terminal His tag
Description: (§1) In this procedure, varying concentrations of unlabeled bispecific EGFR-cMet antibody sample compete with donor fluorophore (Europium (Eu) chelate) labeled bispecific EGFR-cMet antibody for binding to an acceptor fluorophore (Cy5)-labeled EGFR antigen. Excitation of the donor fluorophore results in a transfer of energy to the bound acceptor fluorophore (FRET process). The resultant FRET is detected by emission of light at 665 nm using a microplate reader capable of measuring time-resolved fluorescence. Sample dose response curves are compared to the RM.
(§2) EGFR Binding Materials and Methods. Certified commercial EGFR, a recombinant human EGFR/ErbB1/HER1 with C-terminal His tag is reacted with certified commercial Cy5 Mono NHS Ester to produce Cy5-labeled EGFR. Validated bispecific EGFR-cMet antibody is reacted with certified commercial Europium (Eu) chelate to produce Eu-labeled bispecific EGFR-cMet antibody. […] Fluorescence is then measured by spectrophotometry at 665 nm, plotted against antibody concentration and analyzed by a four-parameter logistic model. The antibody concentration required to obtain half of the maximum fluorescence response (EC50) is determined for RM, assay control and samples. The potencies of assay control and samples are calculated based on the ratio of the sample (or control) and RM EC50 values and reported as a percentage activity relative to the RM.

[2] = biological target: T2, recombinant cMet/HGFR with c-terminal His-tag, Cy5-labeled (UniProt P08581 25-932, limits assumed, Cy5 label (reacted with Cy5 Mono NHS Ester; sites not stated)); test: competitive TR-FRET (Eu-amivantamab/Cy5-c-MET), EC50 ratio vs Reference Material; Ex. 11 drug product, 5 months at 5 C
T2 construct: Commercial protein; also called Cy5-c-MET; Cy5-labeled c-MET antigen; not shown: C-terminal His-tag
Description: as §1, with “(Cy5)-labeled c-MET” for “(Cy5)-labeled EGFR”, “the Reference Material (RM).” for “the RM.”
as §2, with “c-MET Binding” for “EGFR Binding”, “commercial cMet,” for “commercial EGFR,”, “recombinant cMet/HGFR” for “recombinant human EGFR/ErbB1/HER1”, “with c-terminal His-tag” for “with C-terminal His tag”, “Cy5-labeled c-MET.” for “Cy5-labeled EGFR.”, “produce Eu labeled” for “produce Eu-labeled”

[3] = biological target: T1, recombinant human EGFR/ErbB1/HER1 with …; test: competitive TR-FRET (Eu-amivantamab/Cy5-EGFR), EC50 ratio vs Reference Material; Ex. 2 Formulation 3 (acetate), T0, 25 C table
Description: as §1, §2

[4] = biological target: T1, recombinant human EGFR/ErbB1/HER1 with …; test: competitive TR-FRET (Eu-amivantamab/Cy5-EGFR), EC50 ratio vs Reference Material; Ex. 2 Formulation 3 (acetate), T0, 40 C table
Description: as §1, §2

[5] = biological target: T1, recombinant human EGFR/ErbB1/HER1 with …; test: competitive TR-FRET (Eu-amivantamab/Cy5-EGFR), EC50 ratio vs Reference Material; Ex. 2 Formulation 3 (acetate), 1 month at 40 C
Description: as §1, §2

[6] = biological target: T1, recombinant human EGFR/ErbB1/HER1 with …; test: competitive TR-FRET (Eu-amivantamab/Cy5-EGFR), EC50 ratio vs Reference Material; Ex. 12 drug product with rHuPH20, 0 months, 5 C table
Description: as §1, §2

[7] = biological target: T1, recombinant human EGFR/ErbB1/HER1 with …; test: competitive TR-FRET (Eu-amivantamab/Cy5-EGFR), EC50 ratio vs Reference Material; Ex. 2 Formulation 1 (10 mM histidine), 1 month at 40 C
Description: as §1, §2

[8] = biological target: T2, recombinant cMet/HGFR with c-terminal …; test: competitive TR-FRET (Eu-amivantamab/Cy5-c-MET), EC50 ratio vs Reference Material; Ex. 2 Formulation 1 (10 mM histidine), 1 month at 40 C
Description: as §1, with “(Cy5)-labeled c-MET” for “(Cy5)-labeled EGFR”, “the Reference Material (RM).” for “the RM.”
as §2, with “c-MET Binding” for “EGFR Binding”, “commercial cMet,” for “commercial EGFR,”, “recombinant cMet/HGFR” for “recombinant human EGFR/ErbB1/HER1”, “with c-terminal His-tag” for “with C-terminal His tag”, “Cy5-labeled c-MET.” for “Cy5-labeled EGFR.”, “produce Eu labeled” for “produce Eu-labeled”

B1: amivantamab (bispecific antibody, human IgG1, kappa)
heavy 1: not shown
light 1: not shown
heavy 2: not shown
light 2: DIQMTQSPSSVSASVGDRVTITCRASQGISNWLAWFQHKPGKAPKLLIYAASSLLSGVPSRFSGSGSGTDFTLTISSLQPEDFATYYCQQANSFPITFGQGTRLEIKRTVAAPSVFIFPPSDEQLKSGTASVVCLLNNFYPREAKVQWKVDNALQSGNSQESVTEQDSKDSTYSLSSTLTLSKADYEKHKVYACEVTHQGLSSPVTKSFNRGEC
notes: The samples tested were high concentration (160 mg/mL) formulations, fresh or stored or stressed; also called JNJ-61186372; bispecific EGFR-cMet antibody
B1 was tested, and the “EGFR Binding activity relative to Reference Material (%)” value [1] was 84%, the “cMET Binding activity relative to Reference Material (%)” value [2] was 108% and the “EGFR Binding % activity relative to RM” value [3] was 103%. The “EGFR Binding % activity relative to RM” value [4] was 103%, the “EGFR Binding % activity relative to RM” value [5] was 76% and the “EGFR Binding activity relative to Reference Material (%)” value [6] was 92%. The “EGFR Binding % activity relative to RM” value [7] was 69% and the “cMET Binding % activity relative to RM” value [8] was 96%.
